Data taken from PMC12240809.

Target: V5–FoTO1 (Taxus media)
Experiment: co-IP; lysate of N. benthamiana leaves co-expressing both proteins; anti-V5 antibody on protein G magnetic beads, blot with anti-HA-HRP; lysates incubated 15 min with no compound, 45 μM taxadiene or a mock terpene (caryophyllene); extraction buffer 50 mM Tris pH 7.5, 150 mM NaCl, 0.6% NP-40, 0.6% CHAPS, 1 mM β-mercaptoethanol

T5αH–HA, sequence (Q6WG30 whole entry): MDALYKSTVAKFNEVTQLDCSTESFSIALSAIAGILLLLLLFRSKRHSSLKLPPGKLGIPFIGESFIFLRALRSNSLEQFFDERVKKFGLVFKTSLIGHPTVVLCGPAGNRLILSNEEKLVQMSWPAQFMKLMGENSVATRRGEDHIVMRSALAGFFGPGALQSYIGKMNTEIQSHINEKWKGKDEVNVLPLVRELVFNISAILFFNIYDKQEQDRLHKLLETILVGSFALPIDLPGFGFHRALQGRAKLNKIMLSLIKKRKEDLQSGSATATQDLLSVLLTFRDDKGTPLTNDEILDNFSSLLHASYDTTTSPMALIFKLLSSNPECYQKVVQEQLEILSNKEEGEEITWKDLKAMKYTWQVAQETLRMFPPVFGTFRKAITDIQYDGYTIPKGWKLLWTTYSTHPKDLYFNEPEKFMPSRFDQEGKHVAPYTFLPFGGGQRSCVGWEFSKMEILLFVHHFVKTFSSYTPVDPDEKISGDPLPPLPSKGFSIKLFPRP

T5αH–HA (from UniProt Q6WG30 1-499) (enzyme)
fold increase of the co-IP signal with 45 μM taxadiene: 4 fold
